Source: doi:10.1101/2023.11.05.564366v1

Experiments:
Assay in all cases: purified protein
Settings in all cases: 50 °C, 1100 rpm
[1] = substrate: O=C(O)c1ccc(C(=O)OCCO)cc1
[2] = substrate: O=C(O)c1ccc(C(=O)OCCOC(=O)c2ccc(C(=O)OCCO)cc2)cc1
[3] = substrate: O=C(O)c1ccc(C(=O)OCCOC(=O)c2ccc(C(=O)OCCOC(=O)c3ccc(C(=O)O)cc3)cc2)cc1
[4] = substrate: O=C(OCCO)c1ccc(C(=O)OCCO)cc1

B1: LCCICCG (unidentified prokaryotic organism; D238C/F243I/S283C/Y127G) (protein)
chain: QSNPYQRGPNPTRSALTADGPFSVATYTVSRLSVSGFGGGVIYYPTGTSLTFGGIAMSPGYTADASSLAWLGRRLASHGFVVLVINTNSRFDGPDSRASQLSAALNYLRTSSPSAVRARLDANRLAVAGHSMGGGGTLRIAEQNPSLKAAVPLTPWHTDKTFNTSVPVLIVGAEADTVAPVSQHAIPFYQNLPSTTPKVYVELCNASHIAPNSNNAAISVYTISWMKLWVDNDTRYRQFLCNVNDPALCDFRTNNRHCQ
Work on B1 yielded a Km [1] of 0.92 ± 0.22 mM, a kcat [1] of 0.058 ± 0.0024 s⁻¹ and a Km [2] of 0.21 ± 0.091 mM. It also gave a kcat [2] of 9.1 ± 2.71 s⁻¹, a Km [3] of 0.67 ± 0.61 mM and a kcat [3] of 331 ± 142 s⁻¹. For the same protein, the Km [4] was 0.75 ± 0.27 mM and the kcat [4] was 8.2 ± 1.22 s⁻¹.
